Data on four molecules can be found in patent publication US8475791B2, “Anti-IL-TIF antibodies and methods of use” (ZymoGenetics, Inc., priority 1999, dated 2013).

Data set [1] can be described thus: K-562 cytotoxicity assay (MTT). Conditions: human, K-562 cells, 100 uM, MTT absorbance. The format is cell-based, human. Here is the method:
(§1) The K-562 cell line (CRL-243, ATCC) has attained widespread use as a highly sensitive in vitro target for cytotoxicity assays. K-562 blasts are multipotential, hematopoietic malignant cells that spontaneously differentiate into recognizable progenitors of the erythrocytic, granulocytic and monocytic series (Lozzio, B B et al., Proc. Soc. Exp. Biol. Med. 166: 546-550, 1981).
(§2) K562 cells were plated at 5,000 cells/well in 96-well tissue culture clusters (Costar) in DMEM phenol-free growth medium (Life Technologies) supplemented with pyruvate and 10% serum (HyClone). Next day, human recombinant ZCYTO18 (Example 19), BSA control or retinoic acid (known to be cytotoxic to K562 cells) were added. Seventy-two hours later, the vital stain MTT (Sigma, St Louis, Mo.), a widely used indicator of mitochondrial activity and cell growth, was added to the cells at a final concentration of 0.5 mg/ml. MTT is converted to a purple formazan derivative by mitochondrial dehydrogenases. Four hours later, converted MTT was solubilized by adding an equal volume of acidic isopropanol (0.04N HCl in absolute isopropanol) to the wells. Absorbance was measured at 570 nm, with background subtraction at 650 nm. In this experimental setting, absorbance reflects cell viability. Results shown in Table 7 are expressed as % cytotoxicity.

Another data set relates to K-562 cells. The data set is described as follows: K-562 cytotoxicity assay (MTT). It is filed as cell-based, human. The note with it: 72 hours, MTT absorbance. On the procedure:
as §1, §2

Data set [2] deals with BaF3/CRF2-4/zcytor11 cells. The data set is described as follows: Alamar Blue proliferation assay, BaF3/CRF2-4/zcytor11 cells. It is filed as cell-based, murine. Conditions: for proliferative response (in words): 0.06-50 ng/ml, media without IL-3. Here is the method:
BaF3/CRF2-4/zcytor11 cells were spun down and washed in the complete media, described in Example 21A above, but without mIL-3 (hereinafter referred to as “mIL-3 free media”). The cells were spun and washed 3 times to ensure the removal of the mIL-3. Cells were then counted in a hemacytometer. Cells were plated in a 96-well format at 5000 cells per well in a volume of 100 μl per well using the mIL-3 free media.
Proliferation of the BaF3/CRF2-4/zcytor11 cells was assessed using ZCYTO18-CEE protein diluted with mIL-3 free media to 50, 10, 2, 1, 0.5, 0.25, 0.13, 0.06 ng/ml concentrations. 100 μl of the diluted protein was added to the BaF3/CRF2-4/zcytor11 cells. The total assay volume is 200 μl. The assay plates were incubated at 37° C., 5% CO2 for 3 days at which time Alamar Blue (Accumed, Chicago, Ill.) was added at 20 μl/well. Plates were again incubated at 37° C., 5% CO2 for 24 hours. Alamar Blue gives a fluourometric readout based on number of live cells, and is thus a direct measurement of cell proliferation in comparison to a negative control. […]. Plates were read on the Finax™ plate reader (Molecular Devices Sunnyvale, Calif.) using the SoftMax™ Pro program, at wavelengths 544 (Excitation) and 590 (Emmission). […] The response, as measured, was approximately 15-fold over background at the high end of 50 ng/ml down to a 2-fold induction at the low end of 0.06 ng/ml.
Background: Resazurin is reduced to fluorescent resorufin, in cell work by metabolically active cells.

A further data set addresses T1, ZCYTO18 (Homo sapiens, UniProt Q9GZX6).
T1 sequence (Q9GZX6 34-179): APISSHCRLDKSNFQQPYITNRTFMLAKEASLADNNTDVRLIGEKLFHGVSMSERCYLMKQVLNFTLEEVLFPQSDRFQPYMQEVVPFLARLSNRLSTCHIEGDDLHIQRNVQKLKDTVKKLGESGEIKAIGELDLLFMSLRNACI
Conditions: commonly owned PCT/US00/32703; cited from earlier work.

Another data set has as its system BaF3 wild type cells. The data set is described as follows: Alamar Blue proliferation assay, BaF3 wild type cells. Conditions: mIL-3 free media. It is filed as cell-based, murine.
Another data set relates to BaF3/CRF2-4 cells. In words: Alamar Blue proliferation assay, BaF3/CRF2-4 cells. It is filed as cell-based, murine. Conditions: mIL-3 free media. Here is the method: BaF3, an interleukin-3 (IL-3) dependent pre-lymphoid cell line derived from murine bone marrow (Palacios and Steinmetz, Cell 41: 727-734, 1985; Mathey-Prevot et al., Mol. Cell. Biol. 6: 4133-4135, 1986), was maintained in complete media (RPMI medium (JRH Bioscience Inc., Lenexa, Kans.) supplemented with 10% heat-inactivated fetal calf serum, 2 ng/ml murine IL-3 (mIL-3) (R & D, Minneapolis, Minn.), 2 mM L-glutaMax-1™ (Gibco BRL), 1 mM Sodium Pyruvate (Gibco BRL), and PSN antibiotics (GIBCO BRL)). Prior to electroporation, CRF2-4/pZP7P was prepared and purified using a Qiagen Maxi Prep kit (Qiagen) as per manufacturer's instructions. […]
BaF3/CRF2-4/zcytor11 cells were spun down and washed in the complete media, described in Example 21A above, but without mIL-3 (hereinafter referred to as “mIL-3 free media”). […] Cells were then counted in a hemacytometer. […]
Proliferation of the BaF3/CRF2-4/zcytor11 cells was assessed using ZCYTO18-CEE protein diluted with mIL-3 free media to 50, 10, 2, 1, 0.5, 0.25, 0.13, 0.06 ng/ml concentrations. […] Alamar Blue gives a fluourometric readout based on number of live cells, and is thus a direct measurement of cell proliferation in comparison to a negative control. […] Plates were read on the Finax™ plate reader (Molecular Devices Sunnyvale, Calif.) using the SoftMax™ Pro program, at wavelengths 544 (Excitation) and 590 (Emmission). […]

Consider `CC1=C(/C=C/C(C)=C/C=C/C(C)=C/C(=O)O)C(C)(C)CCC1` [Retinoic acid, reference compound], for which, in data set [1], the cytotoxicity at 72 h, 100 µM worked out at 62%.

B1: ZCYTO18: novel four-helical-bundle cytokine polypeptide, SEQ ID NO:3; annotated in the literature as IL-TIF (protein, listed as Homo sapiens)
chain: MGTLATSCLLLLALLVQGGAAAPISSHCRLDKSNFQQPYITNRTFMLAKEASLADNNTDVRLIGEKLFHGVSMSERCYLMKQVLNFTLEEVLFPQSDRFQPYMQEVVPFLARLSNRLSTCHIEGDDLHIQRNVQKLKDTVKKLGESGEIKAIGELDLLFMSLRNACI
In the case of B1, the “% Cytotoxicity” value is recorded as 16.2% in the data set with K-562 cells (100 ng/ml) and 32% in the data set with K-562 cells (300 ng/ml). Besides, in data set [2], the “proliferative response (in words)” value was “dose-dependent proliferative response”.

B2: zcytor16: naturally-expressed soluble receptor antagonist of ZCYTO18 (SEQ ID NO:32, SEQ ID NO:33) (protein, listed as Homo sapiens)
chain: MMPKHCFLGFLISFFLTGVAGTQSTHESLKPQRVQFQSRNFHNILQWQPGRALTGNSSVYFVQYKIYGQRQWKNKEDCWGTQELSCDLTSETSDIQEPYYGRVRAASAGSYSEWSMTPRFTPWWETKIDPPVMNITQVNGSLLVILHAPNLPYRYQKEKNVSIEDYYELLYRVFIINNSLEKEQKVYEGAHRAVEIEALTPHSSYCVVAEIYQPMLDRRSQRSEERCVEIP
Take B2: the “binding of ZCYTO18 and antagonism of its activity” value with ZCYTO18 was “bind ZCYTO18 and antagonize its activity”.

B3: ZCYTO18-CEE: ZCYTO18 polypeptide containing C-terminal GluGlu (EE) tag (SEQ ID NO:14), purified from BHK 570 or Sf9 cells (protein)
chain: APISSHCRLDKSNFQQPYITNRTFMLAKEASLADNNTDVRLIGEKLFHGVSMSERCYLMKQVLNFTLEEVLFPQSDRFQPYMQEVVPFLARLSNRLSTCHIEGDDLHIQRNVQKLKDTVKKLGESGEIKAIGELDLLFMSLRNACIEYMPME
As for B3, the “proliferative response over background” value in data set [2] (50 ng/ml, mIL-3 free media, 3 days then Alamar Blue) was “approximately 15 fold”. Further, in data set [2], the “proliferative response (in words)” value was “dose-dependent proliferative response”. Moreover, the “proliferation in response to ZCYTO18-CEE” value in the data set with BaF3 wild type cells and in the data set with BaF3/CRF2-4 cells was “did not proliferate” throughout.
